Like-named read-outs stand apart in the source and are kept apart here.
Key:
[1] = biological target: T1, recombinant HIV-1 reverse transcriptase protein (HIV-1, UniProt P03367 600-858)
T1 construct: also called rHIV-1; HIV-1 RT

[2] = biological target: T1, recombinant HIV-1 reverse transcriptase …; remark: listed apart in the source
[3] = biological target: T1, recombinant HIV-1 reverse transcriptase …; remark: listed apart in the source
[4] = biological target: T1, recombinant HIV-1 reverse transcriptase …; assay: ELISA, plate coated with HIV-1 RT, sdAb at 1 µg/mL, checkerboard of coating, 2° antibody and HRP
[5] = biological target: T1, recombinant HIV-1 reverse transcriptase …; remark: listed apart in the source
[6] = biological target: T1, recombinant HIV-1 reverse transcriptase …; remark: listed apart in the source
[7] = biological target: T1, recombinant HIV-1 reverse transcriptase …; assay: SPR (Biacore 3000), sdAb immobilized, analyte 100 nM
[8] = biological target: T1, recombinant HIV-1 reverse transcriptase …; remark: listed apart in the source
[9] = biological target: T1, recombinant HIV-1 reverse transcriptase …; assay: SPR (Biacore 3000), sdAb immobilized (1200 RU), full kinetics, analyte 0-200 nM

B1: HIV1-9 anti-HIV-1 RT sdAb (VHH)
VHH: EVQLVESGGGSVQAGGSLRLSCAASVYSYNTNCMGWFRQAPGKEREGVAVIYAAGGLTYYADSVKGRFTISQENGKNTVYLTMNRLKPEDTAMYYCAAKRWCSSWNRGEEYNYWGQGTQVTVSS
notes: also called HIV1-9 VHH; HIV1-9 anti-RT sdAb
- EC50 [1]: 0.0133 µg/mL
- EC50 [2]: 0.0191 µg/mL
- EC50 [3]: 0.0161 µg/mL
- signal-to-noise ratio [4]: > 20
- EC50 [5]: 0.019 µg/mL
- EC50 [6]: 0.0227 µg/mL
- Kd [7]: 4.25 nM
- koff [7]: 0.000379 s⁻¹
- kon [7]: 89100 M⁻¹ s⁻¹
- EC50 [8]: 0.015 µg/mL
- Kd [9]: 3.85 nM
- koff [9]: 0.000731 s⁻¹
- kon [9]: 190000 M⁻¹ s⁻¹

From patent US20170121395A1 (SINGH BIOTECHNOLOGY, published 2017)
